Test results published in article PMC2241821, “A focused antibody library for selecting scFvs expressed at high levels in the cytoplasm” (BMC Biotechnology, 2007).
Substitutions are numbered along the chain they refer to. One block for each binder: values may come before it.

Biological target: T1, αβ tubulin dimer (pig, UniProt P02550;P02554)
T1 construct: source: purified from pig brain
Test: ELISA; tubulin coated on a Nunc Maxisorp 96-well plate; 5-20 μl of cytoplasmic extract of E. coli expressing the scFv; revealed with 9E10 and HRP anti-mouse IgG; also done in presence or absence of 10 mM DTT
Details: one partner purified

binding result: binds
B1: anti-tubulin scFv E12C (scFv, V domains shown)
VH: EVQLVESGGSLVKPGGSLRLSCAASGFTFSNYSMNWVRQAPGKGLEWISSISGSSRYIYYADFVKGRFTISRDNATNSLYLQMNSLRAEDTAVYYCVRSGGNTFDYWGRGTLVTVSS
VL: QSVLTQPASVSGSPGQSITISCAGTSSDVGGYNYVSWYQQHPGKAPKLMIYEDSKRPSGVSNRFSGSKSGNTASLTISGLQAEDEADYYCQQYYRKPWTFGGGTKLAVL
notes: source: E. coli BL21(DE3)pLysS cytoplasm (pET23NN); in cell extract, and purified (Ni-NTA); not shown: c-myc, C-terminal, kept

binding result: binds
B2: anti-tubulin scFv F1C (scFv, V domains shown)
VH: EVQLVESGGSLVKPGGSLRLSCAASGFTFSNYSMNWVRQAPGKGLEWISSISGSSRYIYYADFVKGRFTISRDNATNSLYLQMNSLRAEDTAVYYCVRGNADGGENWELFDKWGRGTLVTVSS
VL: B1 VL with Q92L, Y94Q, R95N, K96T, P97L
notes: as for B1
